Results on one molecule are retold here after patent publication US20060292151A1, “L-SIGN polymorphisms and methods involving use of same” (priority 2004, published 2006).

The assay deals with HCV pseudovirion entry. Briefly: HCV pseudovirion entry into target cells. The assay is classed as cell-based. Particulars: E1/E2-mediated entry of pseudovirions. The source says:
The procedure of Bartosch et al. (2003b) was used to generate retroviral particles pseudotyped with HCV envelope glycoproteins (HCV pseudovirus particles; HCVpp). Briefly, in order to generate HCV pseudovirions, 293T cells were cotransfected with HIV-1-based (pLenti6, Invitrogen) or MMLV-based (pFB, Stratagene, La Jolla, Calif.) retroviral vectors and vectors expressing structural genes, including Gag, Pol and envelope glycoproteins (see FIG. 2). In addition, the HIV-1-based vector was cotransfected with a Rev-encoding plasmid to enable transport of genomic RNAs from the nucleus to the cytoplasm.
Antibodies against E2 as well as HCV+ sera inhibited E1/E2-mediated entry.

B1: soluble CD81 ECL2 peptide: soluble CD81 ECL2 peptide (peptide)
peptide: FVNKDQIAKDVKQFYDQALQQAVVDDDANNAKAVVKTFHETLDCCGSSTLTALTTSVLKNNLCPSGSNIISNLFKEDCHQKIDDLFSGK
For the molecule B1, the “inhibition of HCV pseudovirion entry” value is on record as “inhibited HCV pseudovirion entry”.
